From US5262522A, “Receptor for oncostatin M and leukemia inhibitory factor” (Immunex Corporation, priority 1991, dated 1993) come the findings set out here.

One test deals with Recombinant human LIF. Description: LIF binding assay (phthalate oil separation, Scatchard) on transfected COS-7 cells. The protocol:
Recombinant human LIF is expressed in yeast and purified to homogeneity essentially as described by Hopp, et al., Bio/Technology 6:1204 (1988). The purified protein is radiolabeled using a commercially available enzymobead radioiodination reagent (BioRad). In this procedure 10 μg LIF in 50 μl 0.2M sodium phosphate, pH 7.2, are combined with 50 μl enzymobead reagent, 2 mCi of sodium iodide in 20 μl of 0.05M sodium phosphate pH 7.0 and 10 μl of 2.5% β-D-glucose. After 10 minutes at 25° C., sodium azide (20 μl of 50 mM) and sodium metabisulfite (10 μl of 5 mg/ml) are added and incubation is continued for 5 min. at 25° C. The reaction mixture is fractionated by gel filtration on a 2 ml bed volume of Sephadex® G-25 (Sigma) equilibrated in Roswell Park Memorial Institute (RPMI) 1640 medium containing 2.5% (w/v) bovine serum albumin (BSA), 0.2% (w/v) sodium azide and 20 mM Hepes pH 7.4 (binding medium). […]
The cells were separated from unbound ^125 I-LIF by centrifugation for five minutes at 15,000×g in an Eppendorf microfuge. […] The radioactivity in both parts was then determined on a gamma counter. The determinations of both cell-bound and unbound radioactivity from the two 60 μl aliquots were averaged for subsequent calculations. […]

Another test deals with oncostatin M. Description: Oncostatin M binding assay (phthalate oil separation, Scatchard) on transfected COS-7 cells. The conditions noted are these: 125I-oncostatin M, compared with non-transfected COS-7 cells. From the text: Oncostatin M may be purified from cells in which the protein is naturally found, or from cells transformed with an expression vector encoding oncostatin M. One source of oncostatin M is phorbol ester-treated U937 cells, as described by Zarling et al., PNAS U.S.A. 83:9739 (1986). Purification of recombinant oncostatin M is described by Linsley et al., J. Biol. Chem. 264:4282-4289 (1989), which is hereby incorporated by reference in its entirety.
Oncostatin M may be radiolabeled using any suitable conventional procedure, such as the radioiodination procedure employed to radiolabel LIF in Example 1. The radio-iodination of oncostatin M has also been described by Linsley et al., supra.
The resulting radiolabeled oncostatin M may be substituted for radiolabeled LIF (using the same concentrations and other reaction parameters) in the assay procedures described in Example 1 in order to detect proteins and cells that bind oncostatin M. An assay for binding of ^125 I-oncostatin M to cells is also described in Linsley et al., supra.
COS-7 cells transfected with vector(s) encoding gp130 or LIF-R were assayed for the ability to bind oncostatin M. In separate transfections, COS-7 cells were transfected with the following combinations of vectors. […]

B1: gp130: truncated human gp130 polypeptide encoded by plasmid B10G (SEQ ID NO: 2), expressed on COS-7 cells (protein)
chain: ELLDPCGYISPESPVVQLHSNFTAVCVLKEKCMDYFHVNANYIVWKTNHFTIPKEQYTIINRTASSVTFTDIASLNIQLTCNILTFGQLEQNVYGITIISGLPPEKPKNLSCIVNEGKKMRCEWDGGRETHLETNFTLKSEWATHKFADCKAKRDTPTSCTVDYSTVYFVNIEVWVEAENALGKVTSDHINFDPVYKVKPNPPHNLSVINSEELSSILKLTWTNPSIKSVIILKYNIQYRTKDASTWSQIPPEDTASTRSSFTVQDLKPFTEYVFRIRCMKEDGKGYWSDWSEEASGITYEDRPSKAPSFWYKIDPSHTQGYRTVQLVWKTLPPFEANGKILDYEVTLTRWKSHLQNYTVNATKLTVNLTNDRYLATLTVRNLVGKSDAAVLTIPACDFQATHPVMDLKAFPKDNMLWVEWTTPRESVKKYILEWCVLSDKAPCITDWQQEDGTVHRTYLRGNLAESKCYLITVTPVYADGPGSPESIKAYLKQAPPSKGPTVRTKKVGKNEAVLEWDQLPVDVQNGFIRNYTIFYRTIIGNETAVNVDSSHTEYTLSSLTSDTLYMVRMAAYTDEGGKDGPEFTFTTPKFAQGEIEAIVVPVCLAFLLTTLLGVLFCFNKRDLIKKHIWPNVPDPSKSHIAQWSPHTPPRHNFNSKDQMYSDGNFTDVSVVEIEANDKKPFPEDL
As to B1, the “binding of LIF” value in the test with Recombinant human LIF (125I-LIF, COS-7 cells, compared with non-transfected COS-7 cells) is given as “did not bind LIF in any measurable amount above the amount of binding to the non-transfected COS-7 cells”.

B2: LIF-R: human leukemia inhibitory factor receptor fragment encoded by cDNA clone pHLIFR-65 (SEQ ID NO: 6), expressed on COS-7 cells (protein)
chain: QKKGAPHDLKCVTNNLQVWNCSWKAPSGTGRGTDYEVCIENRSRSCYQLEKTSIKIPALSHGDYEITINSLHDFGSSTSKFTLNEQNVSLIPDTPEILNLSADFSTSTLYLKWNDRGSVFPHRSNVIWEIKVLRKESMELVKLVTHNTTLNGKDTLHHWSWASDMPLECAIHFVEIRCYIDNLHFSGLEEWSDWSPVKNISWIPDSQTKVFPQDKVILVGSDITFCCVSQEKVLSALIGHTNCPLIHLDGENVAIKIRNISVSASSGTNVVFTTEDNIFGTVIFAGYPPDTPQQLNCETHDLKEIICSWNPGRVTALVGPRATSYTLVESFSGKYVRLKRAEAPTNESYQLLFQMLPNQEIYNFTLNAHNPLGRSQSTILVNITEKVYPHTPTSFKVKDINSTAVKLSWHLPGNFAKINFLCEIEIKKSNSVQEQRNVTIKGVENSSYLVALDKLNPYTLYTFRIRCSTETFWKWSKWSNKKQHLTTEASPSKGPDTWREWSSDGKNLIIYWKPLPINEANGKILSYNVSCSSDEETQSLSEIPDPQHKAEIRLDKNDYIISVVAKNSVGSSPPSKIASMEIPNDDLKIEQVVGMGKGILLTWHYDPNMTCDYVIKWCNSSRSEPCLMDWRKVPSNSTETVIESDEFRPGIRYNFFLYGCRNQGYQLLRSMIGYIEELAPIVAPNFTVEDTSADSILVKWEDIPVEELRGFLRGYLFYFGKGERDTSKMRVLESGRSDIKVKNITDISQKTLRIADLQGKTSYHLVLRAYTDGGVGPEKSMYVVTKENSVGLIIAILIPVAVAVIVGVVTSILCYRKREWIKETFYPDIPNPENCKALQFQKSVCEGSSALKTLEMNPCTPNNVEVLETRSAFPKIEDTEIISPVAERPEDRSDAEPENHVVVSYCPPIIEEEIPNPAADEAGGTAQVIYIDVQSMYQPQAKPEEKKKKSRSSRSKI
As for B2, the “binding of oncostatin M” value in the test with oncostatin M is “did not bind oncostatin M in any significant amount above that bound by the non-transfected COS-7 cells”. The “binding of LIF after preincubation with oncostatin M” value in the test on Recombinant human LIF (cells transfected with pHLIFR-65 and CAV, preincubated with non-radiolabeled oncostatin M (curve D)) is given as “essentially unchanged”.
